Where two headings read alike, the source gives them in different places.
Key:
Assay in all cases: SPR
[1] = biological target: T1, recombinant tissue factor containing transmembrane spanning domain (TF 1-248), relipidated
T1 chain: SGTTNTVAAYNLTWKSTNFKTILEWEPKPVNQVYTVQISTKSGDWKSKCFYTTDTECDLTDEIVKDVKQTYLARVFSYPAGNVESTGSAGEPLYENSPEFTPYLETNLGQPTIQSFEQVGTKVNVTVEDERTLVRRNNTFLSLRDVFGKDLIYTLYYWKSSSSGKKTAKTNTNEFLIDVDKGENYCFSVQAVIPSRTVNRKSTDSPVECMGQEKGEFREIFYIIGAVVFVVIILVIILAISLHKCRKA

[2] = biological target: T1, recombinant tissue factor containing …
[3] = biological target: soluble tissue factor (TF 1-219) (UniProt P13726 33-251)

B1: Factor VIIa (enzyme)
chain 1: ANAFLEELRPGSLERECKEEQCSFEEAREIFKDAERTKLFWISYSDGDQCASSPCQNGGSCKDQLQSYICFCLPAFEGRNCETHKDDQLICVNENGGCEQYCSDHTGTKRSCRCHEGYSLLADGVSCTPTVEYPCGKIPILEKRNASKPQGR
chain 2: IVGGKVCPKGECPWQVLLLVNGAQLCGGTLINTIWVVSAAHCFDKIKNWRNLIAVLGEHDLSEHDGDEQSRRVAQVIIPSTYVPGTTNHDIALLRLHQPVVLTDHVVPLCLPERTFSERTLAFVRFSLVSGWGQLLDRGATALELMVLNVPRLMTQDCLQQSRKVGDSPNITEYMFCAGYSDGSKDSCKGDSGGPHATHYRGTWYLTGIVSWGQGCATVGHFGVYTRVSQYIEWLQKLMRSEPRPGVLLRAPFP
[1]
  Kd: 0.0474 nM
  koff: 0.000233 s⁻¹
  kon: 2.58e+06 M⁻¹ s⁻¹
[2]
  Kd: 0.0457 nM
  koff: 0.000234 s⁻¹
  kon: 2.73e+06 M⁻¹ s⁻¹
[3]
  Kd: 11.6 nM
  koff: 0.00592 s⁻¹
  kon: 475000 M⁻¹ s⁻¹

— PMC2864353 (Blood coagulation & fibrinolysis : an international journal …, 2010)
